Assay results as given in publication PMC9375587 (2022).

Molecular target: Thrombin (Homo sapiens, UniProt P00734)
Experiment: solid-phase binding assay

- Kd: 101 nM
B1: Myeloperoxidase (protein)
chain: not shown
